Experiment [1] deals with SARS-CoV S 2P prefusion-stabilized ectodomain trimer (SARS-CoV, Urbani (AAP13441, named for …, UniProt P59594, stabilised)). The experiment is described as follows: SPR. In general terms: Surface plasmon resonance follows binding to a sensor surface in real time, without labels.
In experiment [2] the target is MERS-CoV S 2P prefusion-stabilized ectodomain trimer (MERS-CoV, strain of ectodomain not …, stabilised). Kind of experiment: SPR.

Results on one molecule are retold here after doi:10.1101/2021.05.09.442808 (bioRxiv, 2021).

For orientation: Kd means a measure of binding affinity in units of concentration. High values mean weaker binding, low ones tighter binding.

B1: S2P6 Fab fragment (Fab, V domains shown)
VH: EVQLVQSGAEVKKPGASVKVSCKASGYTFTSQYMHWVRQAPGQGLEWIGIINPSGVHTSYAQKFQGRVTLTRDTSTSTLYMELSSLRSEDTAVYYCARGSPKGAFDYWGQGTLVTVSS
VL: not shown
As to B1, the Kd stood at 7 nM in experiment [1] and 12 nM in experiment [2].
